Where a chain is given by its changes, count along the chain named.
Legend:
[1] = target: T1, recombinant human FGFR3c Fc fusion (human, UniProt P22607 141-372); assay: ELISA, scFv on coated FGFR-Fc
T1 construct: also called FGFR3IIIc; not shown: Fc part of the FGFR-Fc fusion
T1 sequence: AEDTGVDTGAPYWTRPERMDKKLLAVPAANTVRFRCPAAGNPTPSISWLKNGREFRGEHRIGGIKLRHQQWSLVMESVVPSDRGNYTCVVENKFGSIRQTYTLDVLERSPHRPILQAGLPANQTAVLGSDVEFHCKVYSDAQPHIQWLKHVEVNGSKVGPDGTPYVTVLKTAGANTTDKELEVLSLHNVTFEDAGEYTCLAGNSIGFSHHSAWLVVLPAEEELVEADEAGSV
Method: (§1) To characterize the novel anti-FGFR antibodies, their relative ability to bind to each individual FGFR in vitro was compared. A solid phase-based ELISA was used to measure the relative binding of the candidate antibodies to immobilized recombinant human FGFR1c, FGFR2c, FGFR3c, and FGFR4. EC50 binding curves were generated for a subset of candidates (FIGS. 3A-3D, respectively; Table 1).
(§2) For the ELISA assay, the ability of each mAb to cross react with the […] FGF receptors was tested across a concentration curve in order to determine the relative binding across FGFR1-4. FGFR2IIIb was used as a negative control. Black 384-well Maxisorp plates were coated overnight with FGFR-Fc fusions in PBS to 1 ug/ml before washing and blocking with 75 ul/well Pierce Protein Free (PBS) Blocking Buffer for 1 hour at RT. Antibody dilutions were prepared freshly in 1% BSA- PBS+0.05% Tween20 and 25 ul of each antibody was added to wells in duplicate. Plates were incubated at RT for 2 hours, followed by addition of detection antibody at 50 ng/ml in 1% BSA PBS, 0.05% Tween20. ECL substrate (Pierce) was added and plates were read on the EnVision plate reader.

[2] = target: T2, recombinant human FGFR1c Fc fusion (human, UniProt P11362 141-376); assay: ELISA, scFv on coated FGFR-Fc
T2 construct: also called FGFR1IIIc; not shown: Fc part of the FGFR-Fc fusion
T2 sequence: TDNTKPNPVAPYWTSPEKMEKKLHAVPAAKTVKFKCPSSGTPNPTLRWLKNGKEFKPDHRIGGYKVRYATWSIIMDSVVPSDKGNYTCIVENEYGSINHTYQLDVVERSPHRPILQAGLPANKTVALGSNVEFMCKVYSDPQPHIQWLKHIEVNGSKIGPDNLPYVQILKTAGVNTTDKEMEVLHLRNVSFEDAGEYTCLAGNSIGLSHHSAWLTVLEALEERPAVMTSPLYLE
Method: as §1, §2

[3] = target: T3, recombinant human FGFR4 Fc fusion (human, UniProt P22455 144-369); assay: ELISA, scFv on coated FGFR-Fc
T3 construct: 19 used; also called FGFR4c; not shown: Fc part of the FGFR-Fc fusion
T3 sequence: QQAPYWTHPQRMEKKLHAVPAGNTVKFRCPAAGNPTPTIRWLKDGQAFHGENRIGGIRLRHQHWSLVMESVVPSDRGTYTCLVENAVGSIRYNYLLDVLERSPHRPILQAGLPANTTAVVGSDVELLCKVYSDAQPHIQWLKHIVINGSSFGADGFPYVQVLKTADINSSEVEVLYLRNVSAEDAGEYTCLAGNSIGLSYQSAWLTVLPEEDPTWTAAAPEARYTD
Method: as §1, §2

[4] = target: T4, recombinant human FGFR2c Fc fusion (human, UniProt P21802 148-377); assay: ELISA, scFv on coated FGFR-Fc
T4 construct: also called FGFR2IIIc; not shown: Fc part of the FGFR-Fc fusion
T4 sequence (P21802 148-377): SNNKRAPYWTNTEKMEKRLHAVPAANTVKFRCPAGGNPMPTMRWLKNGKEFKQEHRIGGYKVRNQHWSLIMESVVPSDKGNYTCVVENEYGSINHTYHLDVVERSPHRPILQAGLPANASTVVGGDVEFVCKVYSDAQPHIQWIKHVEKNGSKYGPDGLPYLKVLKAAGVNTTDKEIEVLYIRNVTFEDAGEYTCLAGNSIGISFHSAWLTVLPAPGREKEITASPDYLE
Method: as §1, §2

[5] = target: T5, FGFR2IIIb Fc fusion (negative control) (human); assay: ELISA, scFv on coated FGFR-Fc
T5 construct: also called FGFR2b; not shown: Fc part of the FGFR-Fc fusion
T5 chain: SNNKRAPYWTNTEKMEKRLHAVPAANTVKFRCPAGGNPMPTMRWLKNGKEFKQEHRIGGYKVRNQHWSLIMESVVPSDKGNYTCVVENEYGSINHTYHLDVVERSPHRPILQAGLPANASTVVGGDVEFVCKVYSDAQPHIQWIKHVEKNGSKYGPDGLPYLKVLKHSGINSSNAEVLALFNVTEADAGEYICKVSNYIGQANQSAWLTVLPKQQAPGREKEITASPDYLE
Method: as §1, §2

FGFR1 on tumour cells = FGFR1 on tumour cells (UniProt P11362 22-822); assay: cell-based or functional assay
Sequence of FGFR1 on tumour cells (P11362 22-822): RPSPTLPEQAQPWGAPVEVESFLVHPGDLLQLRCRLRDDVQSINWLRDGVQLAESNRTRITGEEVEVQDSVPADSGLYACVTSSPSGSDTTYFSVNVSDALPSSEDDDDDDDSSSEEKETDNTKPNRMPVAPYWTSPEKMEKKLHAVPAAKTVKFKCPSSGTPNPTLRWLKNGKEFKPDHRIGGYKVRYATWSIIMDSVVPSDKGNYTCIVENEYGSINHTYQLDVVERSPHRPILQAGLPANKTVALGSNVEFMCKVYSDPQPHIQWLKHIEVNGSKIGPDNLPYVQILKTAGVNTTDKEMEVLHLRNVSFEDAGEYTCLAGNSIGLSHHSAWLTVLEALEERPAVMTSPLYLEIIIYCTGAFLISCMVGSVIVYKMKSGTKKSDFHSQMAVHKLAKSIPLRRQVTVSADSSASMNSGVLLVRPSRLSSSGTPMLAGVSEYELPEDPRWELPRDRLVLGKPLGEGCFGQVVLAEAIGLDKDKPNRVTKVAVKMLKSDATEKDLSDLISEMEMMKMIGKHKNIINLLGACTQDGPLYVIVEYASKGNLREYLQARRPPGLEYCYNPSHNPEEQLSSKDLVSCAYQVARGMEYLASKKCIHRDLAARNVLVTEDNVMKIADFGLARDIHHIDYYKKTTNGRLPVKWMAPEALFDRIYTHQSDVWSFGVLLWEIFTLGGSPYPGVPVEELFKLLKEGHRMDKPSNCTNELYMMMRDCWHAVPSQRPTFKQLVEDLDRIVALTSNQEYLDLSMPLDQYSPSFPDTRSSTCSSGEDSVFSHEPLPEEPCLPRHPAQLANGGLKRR

[6] = target: T1, recombinant human FGFR3c Fc fusion; assay: solid phase ELISA on coated FGFR-Fc
Method: as §2

[7] = target: T4, recombinant human FGFR2c Fc fusion; assay: solid phase ELISA on coated FGFR-Fc
Method: as §2

[8] = target: T2, recombinant human FGFR1c Fc fusion; assay: solid phase ELISA on coated FGFR-Fc
Method: as §2

[9] = target: T3, recombinant human FGFR4 Fc fusion; assay: solid phase ELISA on coated FGFR-Fc
Method: as §2

6His-Fc-FGFR1c = target: T6, 6His-Fc-FGFR1c (human, UniProt P11362 141-376); assay: competition ELISA, blocks 6His-Fc-FGFR1c binding to coated FGF2
T6 construct: not shown: 6His tag and Fc as named in '6His-Fc-FGFR'
T6 sequence: T2 sequence
Outline: (§3)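 Heparin sulfate-coated, BSA-blocked plates loaded with FGF2 at 40 μg/ml for 2 h. Antibody 2×-dilution series mixed 1:1 with 6His-Fc-FGFR (500 ng/ml stock), bound 2 h at room temperature; remaining receptor detected with anti-His-HRP and chemiluminescence, background corrected.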

6His-Fc-FGFR4 = target: T7, 6His-Fc-FGFR4 (human, UniProt P22455 144-369); assay: competition ELISA, blocks 6His-Fc-FGFR4 binding to coated FGF2
T7 construct: not shown: 6His tag and Fc as named in '6His-Fc-FGFR'
T7 sequence: T3 sequence
Outline: as §3

[10] = target: T8, soluble FGFR3c receptor protein (human, UniProt P22607 141-372); assay: BLI Octet RED96, antibody on anti-hIgG Fc tip
T8 sequence: T1 sequence
Method: (§4) Briefly, the Pall ForteBio Octet RED96 Bio-Layer Interferometry system was used to determine the specificity of anti-FGFR antibodies for FGFR1c, FGFR2c, FGFR3c, and FGFR4. The antibodies and soluble receptor proteins were prepared in PBS at a concentration of 300 nM. First, the candidate antibodies were immobilized on the surface of anti-human IgG Fc biosensor tips for 120 seconds. After immobilization, the biosensors were dipped in PBS solution for 60 seconds (baseline step) to assess assay drift, and determine loading level of antibodies. The baseline step was followed by an association step of 300 seconds wherein the binding interaction between the immobilized antibodies and soluble receptors was measured. Following the association step, the biosensors were dipped into PBS buffer for 600 seconds to measure the dissociation of the bound receptor proteins from the immobilized antibodies. Each binding response was measured and reported real time on a sensorgram trace. For data analysis, a simple 1:1 binding model was used which measures the rate of complex formation of one immobilized antibody and one soluble receptor protein.

[11] = target: soluble FGFR2c receptor protein (human, UniProt P21802 148-377); assay: BLI Octet RED96, antibody on anti-hIgG Fc tip
Sequence of soluble FGFR2c receptor protein (P21802 148-377): as the sequence (P21802 148-377) above
Method: as §4

[12] = target: T9, soluble FGFR4 receptor protein (human, UniProt P22455 144-369); assay: BLI Octet RED96, antibody on anti-hIgG Fc tip
T9 sequence: T3 sequence
Method: as §4

[13] = target: T10, soluble FGFR1c receptor protein (human, UniProt P11362 141-376); assay: BLI Octet RED96, antibody on anti-hIgG Fc tip
T10 sequence: T2 sequence
Method: as §4

B1: Ab4 (scFv format) (scFv)
scFv: EVQLLESGGGVVQPGRSLRLSCAASGFTFSSYAMHWVRQAPGKGLEWVALISYDGSNKYYADSVKGRFTISRDNSKNTLYLQMNSLRAEDTAIYYCVRGAGRGYTYGPDGFDIWGQGTMVTVSSASTGGGSGGGGSDIVMTQTPLSLSVTPGQPASIFCKSSQSLIFGDGKTYLYWYLQKPGQPPRLLIYQVSNRFSGVPDRFSGSGAGTDFTLKISRVEAEDVGVYYCMQAKQFPWTFGQGTKLEIKRTVAAPSHHHHHH
notes: also called FGF#10
[1]
  EC50: 25.9 nM
[2]
  EC50: 0.247 nM
[3]
  EC50: 0.506 nM

B2: Ab15 (scFv format) (scFv)
scFv: EVQLLESGGGVVQPGRSLRLSCAASGFTFSSYAMHWVRQAPGKGLEWVAVISYDGSNKYYADSVKGRFTISRDNSKNTLSLQMNSLRVEDTAIYYCVRGAGRGYTYGPDGFDIWGQGTMVTVSSASTGGGGSGGGGSGGGGSGGGGSDIVMTQTPLSLSVTPGQPASISCTSSRSLLHSDGKTYVYWYVQKSGQPPQLLIYELSNRFSGVPDRFSGSGSRTDFTLKISRVEAEDVGVYYCMQYIEAPLTFGGGTKVEIKRTVAAPSHHHHHH
notes: also called FGF#26
[1]
  EC50: 0.326 nM
[4]
  EC50: 0.247 nM
[2]
  EC50: 0.293 nM
[3]
  EC50: 0.312 nM
[5]
  EC50: ~80000 nM

B3: Ab3 (scFv format) (scFv)
scFv: EVQLVESGGGVVQPGRSLRLSCAASGFTFSQYSMHWVRQSPGKGLEWVTLISFDGADKYYADSVKGRFTISRDNSNDTLFLHMNGLRVEDTAIYYCVRGAGRGYTYGPDGFDIWGQGTMVTVSSASTGGGGSGGGGSGGGGSGGGGSDIQLTQSPSSLSASVGDRVTITCRTSQTISRYLNWYQQQPGKAPKLLIYTATSLQSGVPSRFSGSGSGTDFTLTIGGLQPEDFAIYFCQQTYSAPLTFGGGTKVEIKRTVAAPSHHHHHH
notes: also called FGF#78
[1]
  EC50: 2.02 nM
[4]
  EC50: 0.62 nM
[2]
  EC50: 0.319 nM
[3]
  EC50: 1.07 nM
[5]
  EC50: ~108000 nM

B4: Ab14 (scFv format) (scFv)
scFv: EVQLVETGGGLIQPGGSLRLSCVASGFTVSSNYMSWVRQAPGKGLEWVSVIFSDGTTYYADSVKGRFTISRDNSKNTLYLQMNSLKTEDTAVYYCVAGPANGAYDIWGQGTMVTVSSASTGGGSGGGGSNIQMTQSPSILSASVGDRVTITCRASQSISNWLAWYQQKPGKAPKLLIFRASTLESGVPSRFSGSGSGAEFNLTISSLQPDDFATYYCQQYNVYSGTFGQGTKVEIKRTVAAPSHHHHHH
notes: also called FGF#24
[1]
  EC50: 77.2 nM
[4]
  EC50: 75.7 nM
[2]
  EC50: 129 nM
[3]
  EC50: 72 nM
[5]
  EC50: ~557000 nM

B5: Ab90 (antibody, human IgG2, kappa, V domains shown)
VH: EVQLLESGGGVVQPGRSLRLSCAASGFTFSSYAMHWVRQAPGKGLEWVAVISYDGSNKYYADSVKGRFTISRDNSKNTLSLQMNSLRVEDTAIYYCVRGAGRGYPYGPDGFDIWGQGTMVTVSS
VL: DIVMTQTPLSLSVTPGQPASISCTSSRSLLHSDGKTYVYWYVQKSGQPPQLLIYELSNRFSGVPDRFSGSGSRTDFTLKISRVEAEDVGVYYCMQYVEVPLTFGGGTKVEIKR
notes: format in the assays not spelled out
FGFR1 on tumour cells
  IC50 of pERK inhibition (AlphaScreen SureFire) in NCI-H1581 cells: 0.715 nM
[6]
  EC50: 0.171 nM
[7]
  EC50: 0.036 nM
[8]
  EC50: 0.013 nM
[9]
  EC50: 1.26 nM
6His-Fc-FGFR1c
  IC50: 4.15 nM
6His-Fc-FGFR4
  IC50: 7.38 nM
[10]
  Kd: 11.6 nM
  koff: 0.0015 s⁻¹
  kon: 126000 M⁻¹ s⁻¹
[11]
  Kd: 4.62 nM
  koff: 0.0011 s⁻¹
  kon: 218000 M⁻¹ s⁻¹
[12]
  Kd: 6.69 nM
  koff: 0.000887 s⁻¹
  kon: 112000 M⁻¹ s⁻¹
[13]
  Kd: 12 nM
  koff: 0.00116 s⁻¹
  kon: 85100 M⁻¹ s⁻¹

B6: Ab92 (antibody, human IgG2, kappa, V domains shown)
VH: B5 VH with R102H, Y104F, Y106T
VL: B5 VL with T24R, V99A
notes: as for B5
FGFR1 on tumour cells
  IC50 of pERK inhibition (AlphaScreen SureFire) in NCI-H1581 cells: 1.91 nM
[6]
  EC50: 0.264 nM
[7]
  EC50: 0.0325 nM
[8]
  EC50: 0.0242 nM
[9]
  EC50: 13.1 nM
6His-Fc-FGFR1c
  IC50: 4.16 nM
6His-Fc-FGFR4
  IC50: 14 nM
[10]
  Kd: 37.6 nM
  koff: 0.00286 s⁻¹
  kon: 75600 M⁻¹ s⁻¹
[11]
  Kd: 8.75 nM
  koff: 0.00142 s⁻¹
  kon: 147000 M⁻¹ s⁻¹
[12]
  Kd: 40.3 nM
  koff: 0.00248 s⁻¹
  kon: 60600 M⁻¹ s⁻¹
[13]
  Kd: 20 nM
  koff: 0.00129 s⁻¹
  kon: 57000 M⁻¹ s⁻¹

B7: Ab7 (scFv format) (scFv)
scFv: QVQLVESGGGVVQPGRSLRLSCAASGFTFSGYAIHWVRQAPGKGLEWVALISYDGSNKYYADSAKGRFTISRDNSKNTLSLQMNSLRVEDTAIYYCVRGAGRGYTYGPDGFDIWGQGTMVTVSSASTGGGGSGGGGSGGGGSGGGGSDIVMTQTPLSSPVTLGQPASISCRSSESLVYRDGNTYLSWLHQRPGQSPRLLIYKVSNRFSGVPDRFSGSGAGTDFTLKISRVEAEDVGVYFCMQATQFPWTFGQGTKVEIKRTVAAPSHHHHHH
notes: also called FGF#51
[1]
  EC50: 1.36 nM
[4]
  EC50: 1.47 nM
[2]
  EC50: 0.201 nM
[3]
  EC50: 0.278 nM
[5]
  EC50: ~96700 nM

Source: patent US20180244785A1 (MERRIMACK PHARMACEUTICALS, published 2018)
